Experimental data from article PMC1635293.
Read-outs that look alike come from different tables or passages of the source.

B1: dsRNA with 2 nt 5' overhang (dsRNA)
RNA 1: GGGCUUUCAGUCGGAUGUUUG
RNA 2: UGCAAACAUCCGACUGAAAGC
B2: dsRNA with 2 nt 3' overhang (22 bp dsRNA) (dsRNA)
RNA 1: GGGCUUUCAGUCGGAUGUUUGCAGC
RNA 2: UGCAAACAUCCGACUGAAAGC
B3: dsDNA encoding the same sequence as the dsRNA (dsDNA)
DNA 1: GGGCTTTCAGTCGGATGTTTGCAGC
DNA 2: TGCAAACATCCGACTGAAAGC

Key:
Test in all cases: competition
[1] = molecular target: T1, Msn5p (yeast exportin-5 orthologue);Gsp1pQ71L (GTP form) (budding yeast;yeast, UniProt P52918;P32835 1-1224;1-219, |Q71L)
[2] = molecular target: T2, Exportin-5 (hsExp5);hsRanQ69L (GTP form) (human;human, UniProt Q9HAV4;P62826 1-1204;1-216, |Q69L)
T2 sequence (Q9HAV4 whole entry Q69L, one chain of several): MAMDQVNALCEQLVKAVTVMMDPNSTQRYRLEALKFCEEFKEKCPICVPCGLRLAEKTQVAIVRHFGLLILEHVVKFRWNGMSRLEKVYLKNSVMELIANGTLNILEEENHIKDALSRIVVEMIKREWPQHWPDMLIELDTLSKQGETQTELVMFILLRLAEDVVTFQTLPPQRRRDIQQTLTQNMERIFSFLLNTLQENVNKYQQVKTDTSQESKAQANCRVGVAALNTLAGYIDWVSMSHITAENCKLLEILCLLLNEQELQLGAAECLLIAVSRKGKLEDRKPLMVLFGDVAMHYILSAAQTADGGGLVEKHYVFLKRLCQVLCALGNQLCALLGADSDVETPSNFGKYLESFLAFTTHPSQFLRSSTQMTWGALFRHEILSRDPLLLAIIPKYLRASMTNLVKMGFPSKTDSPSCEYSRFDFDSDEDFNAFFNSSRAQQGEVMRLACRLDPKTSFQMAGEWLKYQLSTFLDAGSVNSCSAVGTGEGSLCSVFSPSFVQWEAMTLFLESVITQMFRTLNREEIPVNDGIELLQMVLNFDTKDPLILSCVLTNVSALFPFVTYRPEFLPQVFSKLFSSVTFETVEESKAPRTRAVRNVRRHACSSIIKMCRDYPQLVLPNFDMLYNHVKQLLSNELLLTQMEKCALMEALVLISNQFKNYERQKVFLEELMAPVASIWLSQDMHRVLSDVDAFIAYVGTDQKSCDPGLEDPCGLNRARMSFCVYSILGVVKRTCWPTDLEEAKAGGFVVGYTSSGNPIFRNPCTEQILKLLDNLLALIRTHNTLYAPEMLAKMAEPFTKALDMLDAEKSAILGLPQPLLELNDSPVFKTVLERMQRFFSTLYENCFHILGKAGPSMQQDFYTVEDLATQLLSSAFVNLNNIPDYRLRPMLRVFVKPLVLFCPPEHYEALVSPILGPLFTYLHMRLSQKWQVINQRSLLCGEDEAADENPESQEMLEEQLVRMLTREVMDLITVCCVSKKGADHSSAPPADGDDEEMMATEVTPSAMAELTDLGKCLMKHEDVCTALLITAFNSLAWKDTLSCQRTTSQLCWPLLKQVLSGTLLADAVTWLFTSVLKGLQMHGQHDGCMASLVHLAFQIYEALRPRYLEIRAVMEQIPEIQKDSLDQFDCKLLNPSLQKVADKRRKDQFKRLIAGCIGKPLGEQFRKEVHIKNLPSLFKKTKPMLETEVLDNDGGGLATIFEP

[3] = molecular target: T2, Exportin-5 (hsExp5);hsRanQ69L (GTP form); remark: listed apart in the source
[4] = molecular target: Exportin-5 (dmExp5);dmRanQ69L (GTP form) (Drosophila melanogaster?;Drosophila, UniProt Q9BP41;Q9VZ23 1-1241;1-216, |Q69L)
[5] = molecular target: T1, Msn5p (yeast exportin-5 …); remark: listed apart in the source

| Binder | binding result [1] | binding result [2] | binding result [3] | binding result [4] | binding result [5] |
| --- | --- | --- | --- | --- | --- |
| B1 | no binding | no binding | – | – | – |
| B2 | – | – | binds | binds | – |
| B3 | – | – | no binding | no binding | no binding |
